The test addresses SARS-CoV-2 spike (S) protein (SARS-CoV-2, UniProt P0DTC2 14-1208).

Numbering of substitutions follows the chain as printed.

B1: antibody 353 (antibody, V domains shown)
VH: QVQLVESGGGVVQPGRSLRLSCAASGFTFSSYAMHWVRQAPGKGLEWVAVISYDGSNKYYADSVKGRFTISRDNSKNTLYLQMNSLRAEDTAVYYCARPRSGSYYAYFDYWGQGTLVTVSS
VL: DIQMTQSPSSLSASVGDRVTITCRASQGISNYLAWFQQKPGKAPKSLIYAASSLQSGVPSKFSGSGSGTDFTLTISSLQPEDFATYYCQQYNSYPPTFGGGTKVEIK
As usually defined, the Kd is the free concentration of one partner at which half of the binding sites on the other are occupied at equilibrium, for simple one-to-one binding. As a reminder, the koff is the first-order rate constant of dissociation. A higher koff goes with fast dissociation. Broadly, the kon is a measure of how fast the partners come together. Read a high kon as fast association. For B1, the affinity, expressed as Kd, was 0.0601 nM; the koff worked out at 4.09e-05 s⁻¹; the kon is 680000 M⁻¹ s⁻¹.

B2: antibody 338 (antibody, V domains shown)
VH: QVQLQESGPGLVKPSETLSLTCAVSGYSISSDYYWGWIRQPPGKGLEWIGSIYHSGSTYYNPSLKSRVTISIDTSKNQFSLKLSSVTAADTAVYYCARDPGNYDILTGIFDYWGQGTLVTVSS
VL: QSALTQPASVSGSPGQSITISCTGTSSDVGVYNYVSWYQQHPGKAPKLMIYDVTNRPSGVSNRFSGSKSGNTASLTISGLQAEDEADYYCSSYTSSSTLAVYVFGTGTKVTVL
As for B2, binding was put at a Kd of 0.882 nM, the koff was 4.43e-05 s⁻¹ and the on-rate (kon) was found to be 50200 M⁻¹ s⁻¹.

B3: antibody 311 (antibody, V domains shown)
VH: QVQLQESGPGLVKPSETLSLTCTVSGYSISSGYYWGWIRQPPGKGLEWIGSIYHSGSTYYNPSLKSRVTISVDTSKNQFSLKLSSVTAADTAVYYCAREETLGSSWYESYIDYWGQGTLVTVSS
VL: SYVLTQPPSVSVAPGKTARITCGGNNIGSKSVHWYQQKPGQAPVLVIYYDSDRPSGIPERFSGSNSGNTATLTISRVEAGDEADYYCQVWDSSSDHPRVFGGGTKLTVL
Molecule B3 came in with a Kd of 19.1 nM, a koff of 0.000407 s⁻¹ and a kon of 21300 M⁻¹ s⁻¹.

B4: antibody 302 (antibody, V domains shown)
VH: QVQLVQSGAEVRKPGASVKVSCKVSGYTLSELSMHWVRQAPGKGLEWMGGFDPEDGERMYAQKFQGRVTMTEDTSTDTAYMELSSLRSEDTAIYYCTTDLSYLWSGKLEPDYWYFALWGRGTLVTVSS
VL: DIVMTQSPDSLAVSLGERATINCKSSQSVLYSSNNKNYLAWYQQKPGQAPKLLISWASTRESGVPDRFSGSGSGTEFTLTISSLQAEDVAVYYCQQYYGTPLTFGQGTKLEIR
The molecule B4 had a dissociation constant Kd of 0.726 nM, a koff of 7.63e-05 s⁻¹ and an association rate constant (kon) of 105000 M⁻¹ s⁻¹.

B5: antibody 258 (antibody, V domains shown)
VH: QVQLQESGPGLVKPSETLSLTCTVSGGSISSYYWSWIRQPAGKGLEWIGRIYTSGSTNYNPSLKSRVTMSVDTSKNQFSLKLSSVTAADTAVYYCAAGYGSIDYWGQGTLVTVSS
VL: not shown
The molecule B5 showed a Kd of 0.996 nM, a koff of 8.36e-05 s⁻¹ and a kon of 84000 M⁻¹ s⁻¹.

B6: antibody 308 (antibody, V domains shown)
VH: QLQLQESGPGLVKPSETLSLTCSVSGGSISSSSYHWGWIRQPPGKGLEWIGSIYYSGSTYYNPSLKSRVTISVDTSKNQFSLKLRSVTAADTAVYYCAGLRVVITFGGVIPKGGAFDIWGQGTMVTVSS
VL: QSALTQPASVSGSPGQSITISCTGTSSDVGGYNYVSWYQQHPGKAPKLMIYDVSNRPSGVSNRFSGSKSGNTASLTISGLQAEDEADYYCSSYTSSSTVVFGGGTKLTVL
As for B6, the affinity, expressed as Kd, was 0.495 nM; the koff turned out to be 6.89e-05 s⁻¹; the kon was 139000 M⁻¹ s⁻¹.

B7: antibody 318 (antibody, V domains shown)
VH: QVQLVESGGGVVPPGRSLSLPCAASGFSFSAYAMHWLRQAPGKGLEWVAVISYDGTVKYVADSVRGRFTISRDNSNNTLYLQMTSLRSDDTAVYYCARDLGALAAAPTVYFVHWGQGTLVTVSS
VL: SYVLTQPPSVSVAPGKTATITCAGEDIGRKSVHWYQQKPGQAPVLVIFYYSDRPSGIPDRFSGSVSGNTATLTIGRVEAGDEADYFCQVWDRTTNHVIFGGGTKVTVL
In turn, B7 came in with a Kd of 11.1 nM, a koff of 0.0017 s⁻¹ and a kon of 152000 M⁻¹ s⁻¹.

B8: antibody 370 (antibody, V domains shown)
VH: B7 VH with S28T
VL: B7 VL
B8 gave a Kd of 5.55 nM, a koff of 0.000986 s⁻¹ and an on-rate (kon) of 178000 M⁻¹ s⁻¹.

B9: antibody 297 (antibody, V domains shown)
VH: QVQLVESGGGVVQPGRSLRLSCAASGFTFSSYAMHWVRQAPGKGLEWVAVISYDGSNKYYADSVKGRFTISRDNSKNTLYLQMNSLRAEDTAVYYCARSFRGGYYYGMDVWGQGTTVTVSS
VL: DIQLTQSPSFLSASVGDRVTITCRASQGISSYLAWYQQKPGKAPKLLIYAASTLQSGVPSRFSGSGSGTEFTLTISSLQPEDFATYYCQQLNSYPLFTFGPGTKVDIK
As to B9, the Kd came out at 1.6 nM, the koff came to 0.000127 s⁻¹ and the kon stood at 79800 M⁻¹ s⁻¹.

B10: antibody 305 (antibody, V domains shown)
VH: QVQLVESGGGVVQPGRSLRLSCAASGFTFSSYAMHWVRQAPGKGLEWVAVISYDGSNKYYADSVKGRFTISRDNSKNTLYLQMNSLRAEDTAVYYCAREQTSYDYVWGTLGAYYYYGMDVWGQGTTVTVSS
VL: SSELTQDPAVSVALGQTVRITCQGDSLRSYYASWYQQKPGQAPVLVIYGKNNRPSGIPDRFSGSSSGNTASLTITGAQAEDEADYYCNSRDSSGNHLVFGGGTKLTVL
Consider B10, for which the dissociation constant Kd stood at 13.8 nM, the koff stood at 0.001 s⁻¹ and the kon turned out to be 72600 M⁻¹ s⁻¹.

B11: antibody 298 (antibody, V domains shown)
VH: EVQLVESGGGLVQPGGSLRLSCAASGFTVSSNYMSWVRQAPGKGLEWVSVIYSGGSTYYADSVKGRFTISRDNSKNTLYLQMNSLRAEDTAVYYCAREEGEWEKDYYGMDVWGQGTTVTVSS
VL: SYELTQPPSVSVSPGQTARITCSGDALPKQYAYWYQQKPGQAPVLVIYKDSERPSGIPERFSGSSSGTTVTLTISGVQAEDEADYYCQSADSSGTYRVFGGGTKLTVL
As for B11, the Kd amounted to 0.0225 nM, the koff amounted to 1.34e-05 s⁻¹ and the on-rate (kon) is 597000 M⁻¹ s⁻¹.

B12: antibody 278 (antibody, V domains shown)
VH: QVQLVQSGAEVKKPGASVKVSCKASGYTFTSYYMHWVRQAPGQGLEWMGIINPSGGSTSYAQKFQGRVTMTRDTSTSTVYMELSSLRSEDTAVYYCARDHSNADPYYDFWSGYYTRTYYYGMDVWGQGTTVTVSS
VL: not shown
Turning to B12, the dissociation constant Kd came to 4.78 nM, the koff is 0.000862 s⁻¹ and the kon came out at 201000 M⁻¹ s⁻¹.

B13: antibody 310 (antibody, V domains shown)
VH: EVQLVESGGGLVQPGGSLRLSCAASGFTFSSYWMSWVRQAPGKGLEWVANIKQDGSEKYYVDSVKGRFTISRDNAKNSLYLQMNSLRAEDTAVYYCARVGSSSWYFDYWGQGTLVTVSS
VL: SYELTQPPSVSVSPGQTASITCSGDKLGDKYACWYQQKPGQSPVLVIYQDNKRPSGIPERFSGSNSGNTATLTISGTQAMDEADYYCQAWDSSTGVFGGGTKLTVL
Molecule B13 registered a Kd of 0.532 nM, a koff of 6.43e-05 s⁻¹ and a kon of 121000 M⁻¹ s⁻¹.

B14: antibody 354 (antibody, V domains shown)
VH: QVQLVESGGGVVQPGRSLRLSCAASGFTFSSYAMHWVRQAPGKGLEWVAVISYDGSNKYYADSVKGRFTISRDNSKNTLYLQMNSLRAEDTAVYYCARDRPYYYGSGIPGYYGMDVWGQGTTVTVSS
VL: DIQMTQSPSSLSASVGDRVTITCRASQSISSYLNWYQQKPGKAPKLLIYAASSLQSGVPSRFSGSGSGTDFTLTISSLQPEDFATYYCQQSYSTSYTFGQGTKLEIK
For B14, the Kd stood at 43.6 nM, the koff came to 0.00179 s⁻¹ and the kon came out at 41100 M⁻¹ s⁻¹.

B15: antibody 261 (antibody, V domains shown)
VH: QVQLVESGGGVVQPGRSLRLSCAASGFTFSSYAMHWVRQAPGKGLEWVAVISYDGSNKYYADSVKGRFTISRDNSKNTLYLQMNSLRAEDTAVYYCARDEAYYDILTGYINAPKNYYYYGMDVWGQGTTVTVSS
VL: DIQMTQSPSSLSASVGDRVTITCRASQGIRNDLGWYQQKPGKAPKRLIYAASSLQSGVPSRFSGSGSGTEFTLTISSLQPEDFATYYCLQHNSYPFTFGPGTKVDIK
The molecule B15 came in with a dissociation constant (Kd) of 5.37 nM, a koff of 0.000695 s⁻¹ and a kon of 129000 M⁻¹ s⁻¹.

B16: antibody 356 (antibody, V domains shown)
VH: QVQLVQSGAEVKKPGASVKVSCKASGYTFTSYGISWVRQAPGQGLEWMGWISAYHGNTNYAQKLQGRVTMTTDTSTSTAYMELRSLRSDDTAVYYCARVGLWWLGHADAFDIWGQGTMVTVSS
VL: B15 VL with F96L, P100G, D105E
The molecule B16 returned a Kd of 3.65 nM, a koff of 9.66e-05 s⁻¹ and a kon of 26500 M⁻¹ s⁻¹.

B17: antibody 307 (antibody, V domains shown)
VH: QVQLVESGGGVVQPGRSLRLSCAASGFTFSSYGMHWVRQAPGKGLEWVAVIWYDGSNKYYADSVKGRFTISRDNSKNTLYLQMNSLRAEDTAVYYCAKGYTWDYYYYGMDVWGQGTTVTVSS
VL: not shown
For the molecule B17, the Kd is 17 nM and the koff was found to be 0.00171 s⁻¹.

B18: antibody 336 (antibody, V domains shown)
VH: QVQLVESGGGVVQPGRSLRLSCAASGFTFSSYAMHWVRQAPGKGLEWVAVISYDGSNKYYADSVKGRFTISRDNSKNTLYLQMNSLRAEDTAVYYCARAQTDYYDSSGWFDYWGQGTLVTVSS
VL: SYELTQPPSVSVSPGQTARITCSGDALPKQYAYWYQQKPGQAPVLVIYKDSERPSGIPERFSGSSSGTTVTLTISGVQAEDEADYYCQSADSSGTPHWVFGGGTKLTVL
Take B18: the affinity, expressed as Kd, was 1.11 nM; the dissociation rate constant (koff) came to 0.00021 s⁻¹; the kon was 190000 M⁻¹ s⁻¹.

B19: antibody 330 (antibody, V domains shown)
VH: QVQLVESGGGVVQPGRSLRLSCAASGFTFSSYAMHWVRQAPGKGLEWVAVISYDGSNKYYADSVKGRFTISRDNSKNTLYLQMNSLRAEDTAVYYCARDFQYYDFWSGYLTVSSPTSYYGMDVWGQGTTVTVSS
VL: NFMLTQPHSVSESPGKTVTISCTGSSGSIASNYVQWYQQRPGSAPTTVIYEDNQRPSGVPDRFSGSIDSSSNSASLTISGLKTEDEADYYCQSYDSSNVVFGGGTKLTVL
B19 showed a Kd of 9.54 nM, a koff of 0.00073 s⁻¹ and a kon of 76500 M⁻¹ s⁻¹.

B20: antibody 277 (antibody, V domains shown)
VH: QVQLVESGGGVVQPGRSLRLSCAASGFTFSSYAMHWVRQAPGKGLEWVAVISYDGSNTYYADSVKGRFTISRDNSKNTLYLQMNSLRAEDTAVYYCARPYSGSYFNWFDPWGQGTLVTVSS
VL: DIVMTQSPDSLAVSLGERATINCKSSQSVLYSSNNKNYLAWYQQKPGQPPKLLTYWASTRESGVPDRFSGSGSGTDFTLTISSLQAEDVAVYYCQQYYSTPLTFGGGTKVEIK
B20 yielded a Kd of 0.204 nM, a koff of 6.24e-05 s⁻¹ and a kon of 305000 M⁻¹ s⁻¹.

B21: antibody 313 (antibody, V domains shown)
VH: B20 VH with T58K, P99G, Y100L, S101G, F105Y, N106S, W107L, P110Y
VL: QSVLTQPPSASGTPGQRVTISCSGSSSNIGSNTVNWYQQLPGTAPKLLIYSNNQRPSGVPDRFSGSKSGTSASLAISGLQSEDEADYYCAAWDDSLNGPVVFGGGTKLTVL
On to B21, for which the dissociation constant Kd was found to be 0.0975 nM, the koff came out at 4.89e-05 s⁻¹ and the kon was 502000 M⁻¹ s⁻¹.

B22: antibody 291 (antibody, V domains shown)
VH: B9 VH with S99A, F100S, R101G, G103S, Y105F, Y106G
VL: QSALTQPASVSGSPGQSITISCTGTSSDVGGYNYVSWYQQHPGKAPKLMIYEVSNRPSGVSNRFSGSKSGNTASLTISGLQAEDEADYYCSSYTSSSTLYVFGTGTKVTVL
With B22, binding was characterised by a dissociation constant (Kd) of 0.117 nM, the koff is 5.43e-05 s⁻¹ and the on-rate constant (kon) is 464000 M⁻¹ s⁻¹.

Source of the values: patent US20210292393A1 (published 2021).
